Consider ten variants from IntAct's records for PubMed 31515488.

The labels stand for the following.
B1: Keratin-associated protein 5-9 (Homo sapiens), P26371 (parent)
chain: MGCCGCSGGCGSSCGGCDSSCGSCGSGCRGCGPSCCAPVYCCKPVCCCVPACSCSSCGKRGCGSCGGSKGGCGSCGCSQCSCCKPCCCSSGCGSSCCQCSCCKPYCSQCSCCKPCCSSSGRGSSCCQSSCCKPCCSSSGCGSSCCQSSCCKPCCSQSRCCVPVCYQCKI
B2: Actin nucleation-promoting factor WAS (Homo sapiens), P42768 (parent)
chain: MSGGPMGGRPGGRGAPAVQQNIPSTLLQDHENQRLFEMLGRKCLTLATAVVQLYLALPPGAEHWTKEHCGAVCFVKDNPQKSYFIRLYGLQAGRLLWEQELYSQLVYSTPTPFFHTFAGDDCQAGLNFADEDEAQAFRALVQEKIQKRNQRQSGDRRQLPPPPTPANEERRGGLPPLPLHPGGDQGGPPVGPLSLGLATVDIQNPDITSSRYRGLPAPGPSPADKKRSGKKKISKADIGAPSGFKHVSHVGWDPQNGFDVNNLDPDLRSLFSRAGISEAQLTDAETSKLIYDFIEDQGGLEAVRQEMRRQEPLPPPPPPSRGGNQLPRPPIVGGNKGRSGPLPPVPLGIAPPPPTPRGPPPPGRGGPPPPPPPATGRSGPLPPPPPGAGGPPMPPPPPPPPPPPSSGNGPAPPPLPPALVPAGGLAPGGGRGALLDQIRQGIQLNKTPGAPESSALQPPPQSSEGLVGALMHVMQKRSRAIHSSDEGEDQAGDEDEDDEWDD
B3: Protein phosphatase 1 regulatory inhibitor subunit 16B (Homo sapiens), Q96T49 (parent)
chain: MASHVDLLTELQLLEKVPTLERLRAAQKRRAQQLKKWAQYEQDLQHRKRKHERKRSTGGRRKKVSFEASVALLEASLRNDAEEVRYFLKNKVSPDLCNEDGLTALHQCCIDNFEEIVKLLLSHGANVNAKDNELWTPLHAAATCGHINLVKILVQYGADLLAVNSDGNMPYDLCEDEPTLDVIETCMAYQGITQEKINEMRVAPEQQMIADIHCMIAAGQDLDWIDAQGATLLHIAGANGYLRAAELLLDHGVRVDVKDWDGWEPLHAAAFWGQMQMAELLVSHGASLSARTSMDEMPIDLCEEEEFKVLLLELKHKHDVIMKSQLRHKSSLSRRTSSAGSRGKVVRRASLSDRTNLYRKEYEGEAILWQRSAAEDQRTSTYNGDIRETRTDQENKDPNPRLEKPVLLSEFPTKIPRGELDMPVENGLRAPVSAYQYALANGDVWKVHEVPDYSMAYGNPGVADATPPWSSYKEQSPQTLLELKRQRAAAKLLSHPFLSTHLGSSMARTGESSSEGKAPLIGGRTSPYSSNGTSVYYTVTSGDPPLLKFKAPIEEMEEKVHGCCRIS
B4: Microtubule-associated tumor suppressor candidate 2 (Homo sapiens), Q5JR59-3 (parent)
chain: MGHCCCKPYNCLQCLDKTNESALVKEKELSIELANIRDEVAFHTAKCEKLQKEKEELERRFEDEVKRLGWQQQAELQELEERLQLQFEAEMARLQEEHGDQLLSIRCQHQEQVEDLTASHDAALLEMENNHTVAITILQDDHDHKVQELMSTHELEKKELEENFEKLRLSLQDQVDTLTFQSQSLRDRARRFEEALRKNTEEQLEIALAPYQHLEEDMKSLKQVLEMKNQQIHEQEKKILELEKLAEKNIILEEKIQVLQQQNEDLKARIDQNTVVTRQLSEENANLQEYVEKETQEKKRLSRTNEELLWKLQTGDPTSPIKLSPTSPVYRGSSSGPSSPARVSTTPR
partner: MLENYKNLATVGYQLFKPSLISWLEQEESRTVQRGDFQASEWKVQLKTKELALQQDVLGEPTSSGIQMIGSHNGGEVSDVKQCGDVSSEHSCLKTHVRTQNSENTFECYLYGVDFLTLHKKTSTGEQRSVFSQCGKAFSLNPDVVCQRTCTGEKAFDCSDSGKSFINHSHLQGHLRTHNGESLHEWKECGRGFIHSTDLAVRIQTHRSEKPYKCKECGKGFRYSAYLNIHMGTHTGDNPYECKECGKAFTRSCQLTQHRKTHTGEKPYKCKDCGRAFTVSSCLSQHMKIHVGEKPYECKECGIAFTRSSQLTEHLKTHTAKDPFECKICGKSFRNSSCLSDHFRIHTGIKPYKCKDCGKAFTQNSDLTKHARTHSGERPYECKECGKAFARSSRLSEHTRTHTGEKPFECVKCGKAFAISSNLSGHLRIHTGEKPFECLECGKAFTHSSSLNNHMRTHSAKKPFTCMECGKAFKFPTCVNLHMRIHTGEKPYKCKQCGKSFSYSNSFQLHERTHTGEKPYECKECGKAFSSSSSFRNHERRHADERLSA
B5: Isoform 1 of Mothers against decapentaplegic homolog 3 (Homo sapiens), P84022-1 (parent)
chain: MSSILPFTPPIVKRLLGWKKGEQNGQEEKWCEKAVKSLVKKLKKTGQLDELEKAITTQNVNTKCITIPRSLDGRLQVSHRKGLPHVIYCRLWRWPDLHSHHELRAMELCEFAFNMKKDEVCVNPYHYQRVETPVLPPVLVPRHTEIPAEFPPLDDYSHSIPENTNFPAGIEPQSNIPETPPPGYLSEDGETSDHQMNHSMDAGSPNLSPNPMSPAHNNLDLQPVTYCEPAFWCSISYYELNQRVGETFHASQPSMTVDGFTDPSNSERFCLGLLSNVNRNAAVELTRRHIGRGVRLYYIGGEVFAECLSDSAIFVQSPNCNQRYGWHPATVCKIPPGCNLKIFNNQEFAALLAQSVNQGFEAVYQLTRMCTIRMSFVKGWGAEYRRQTVTSTPCWIELHLNGPLQWLDKVLTQMGSPSIRCSSVS
partner: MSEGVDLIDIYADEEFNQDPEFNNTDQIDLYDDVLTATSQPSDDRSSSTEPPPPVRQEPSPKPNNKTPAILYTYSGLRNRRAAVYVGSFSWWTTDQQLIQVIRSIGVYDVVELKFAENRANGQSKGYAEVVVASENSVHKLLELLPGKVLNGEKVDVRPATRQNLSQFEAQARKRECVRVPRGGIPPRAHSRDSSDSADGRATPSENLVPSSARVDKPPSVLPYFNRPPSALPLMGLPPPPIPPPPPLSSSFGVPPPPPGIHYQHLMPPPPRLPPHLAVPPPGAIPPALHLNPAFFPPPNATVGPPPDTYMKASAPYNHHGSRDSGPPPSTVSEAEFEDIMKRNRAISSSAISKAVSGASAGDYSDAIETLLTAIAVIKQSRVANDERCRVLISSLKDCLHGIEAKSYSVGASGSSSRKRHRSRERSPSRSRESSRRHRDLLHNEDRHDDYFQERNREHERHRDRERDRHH
B6: Ribosomal RNA-processing protein 7 homolog A (Homo sapiens), Q9Y3A4 (parent)
chain: MVARRRKCAARDPEDRIPSPLGYAAIPIKFSEKQQASHYLYVRAHGVRQGTKSTWPQKRTLFVLNVPPYCTEESLSRLLSTCGLVQSVELQEKPDLAESPKESRSKFFHPKPVPGFQVAYVVFQKPSGVSAALALKGPLLVSTESHPVKSGIHKWISDYADSVPDPEALRVEVDTFMEAYDQKIAEEEAKAKEEEGVPDEEGWVKVTRRGRRPVLPRTEAASLRVLERERRKRSRKELLNFYAWQHRESKMEHLAQLRKKFEEDKQRIELLRAQRKFRPY
B7: Glycolipid transfer protein (Homo sapiens), Q9NZD2 (parent)
chain: MALLAEHLLKPLPADKQIETGPFLEAVSHLPPFFDCLGSPVFTPIKADISGNITKIKAVYDTNPAKFRTLQNILEVEKEMYGAEWPKVGATLALMWLKRGLRFIQVFLQSICDGERDENHPNLIRVNATKAYEMALKKYHGWIVQKIFQAALYAAPYKSDFLKALSKGQNVTEEECLEKIRLFLVNYTATIDVIYEMYTQMNAELNYKV
partner: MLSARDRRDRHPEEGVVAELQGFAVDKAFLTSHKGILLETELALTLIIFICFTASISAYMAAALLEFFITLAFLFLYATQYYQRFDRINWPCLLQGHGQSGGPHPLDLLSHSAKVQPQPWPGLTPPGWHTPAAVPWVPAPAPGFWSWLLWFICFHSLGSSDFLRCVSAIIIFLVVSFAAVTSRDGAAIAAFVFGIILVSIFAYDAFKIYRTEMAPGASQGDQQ

In the first assay the parent is B1. The following applies: with catz_human CTSZ.
On to Y40C, for which the “effect of a mutation on the interaction” value is “disrupting interaction strength”.

The variants in the next assay derive from B1. The following applies: with sdc3_human SDC3, O75056.
Chain of sdc3_human SDC3, O75056 (O75056 whole entry): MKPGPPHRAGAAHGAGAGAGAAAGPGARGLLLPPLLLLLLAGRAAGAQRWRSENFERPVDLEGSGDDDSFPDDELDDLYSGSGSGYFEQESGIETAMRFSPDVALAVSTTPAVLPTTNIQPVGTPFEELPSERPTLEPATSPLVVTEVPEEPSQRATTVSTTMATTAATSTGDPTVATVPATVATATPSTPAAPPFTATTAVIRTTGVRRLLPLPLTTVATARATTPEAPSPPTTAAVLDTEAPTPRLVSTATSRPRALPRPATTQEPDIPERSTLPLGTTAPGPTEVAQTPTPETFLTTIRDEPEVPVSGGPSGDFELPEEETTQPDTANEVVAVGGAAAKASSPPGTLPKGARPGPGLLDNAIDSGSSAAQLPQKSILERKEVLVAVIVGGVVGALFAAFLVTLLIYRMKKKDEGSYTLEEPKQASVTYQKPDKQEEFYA
Consider Y40C, for which the “effect of a mutation on the interaction” value is on record as “with no effect”.

In a further assay the parent is B2. The following applies: with cdc42_human CDC42, P60953.
Chain of cdc42_human CDC42, P60953 (P60953 whole entry, looked up): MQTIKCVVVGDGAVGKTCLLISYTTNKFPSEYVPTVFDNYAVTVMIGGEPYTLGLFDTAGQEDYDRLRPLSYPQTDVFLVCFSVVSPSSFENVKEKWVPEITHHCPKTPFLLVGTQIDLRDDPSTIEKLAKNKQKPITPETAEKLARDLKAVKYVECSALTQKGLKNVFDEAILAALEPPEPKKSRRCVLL
E131K: the “effect of a mutation on the interaction” value is “with no effect”. Regarding I294T, the “effect of a mutation on the interaction” value is “disrupting interaction strength”.

In a further assay the parent is B3. The note with it: with crx_human CRX.
As for P519S, the “effect of a mutation on the interaction” value is “with no effect”.

Variants of B3 are the subject of a further assay. The note with it: with ikzf3_human IKZF3, Q9UKT9.
Chain of ikzf3_human IKZF3, Q9UKT9 (Q9UKT9 whole entry): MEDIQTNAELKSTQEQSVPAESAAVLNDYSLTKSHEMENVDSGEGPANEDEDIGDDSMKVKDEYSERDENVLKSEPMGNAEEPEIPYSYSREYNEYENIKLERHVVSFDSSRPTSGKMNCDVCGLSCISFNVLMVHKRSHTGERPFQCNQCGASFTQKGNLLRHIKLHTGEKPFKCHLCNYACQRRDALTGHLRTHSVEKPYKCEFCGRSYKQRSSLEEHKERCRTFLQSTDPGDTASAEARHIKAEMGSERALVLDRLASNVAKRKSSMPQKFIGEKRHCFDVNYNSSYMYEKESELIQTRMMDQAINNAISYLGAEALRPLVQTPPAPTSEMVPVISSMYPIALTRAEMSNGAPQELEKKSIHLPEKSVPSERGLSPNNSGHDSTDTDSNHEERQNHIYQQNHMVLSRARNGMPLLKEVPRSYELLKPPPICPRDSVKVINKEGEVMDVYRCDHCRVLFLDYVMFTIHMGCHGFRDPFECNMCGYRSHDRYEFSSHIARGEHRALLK
Regarding P519S, the “effect of a mutation on the interaction” value is recorded as “with no effect”.

Variants of B3 are the subject of a further assay. The following applies: with sf3b4_human SF3B4, Q15427.
Chain of sf3b4_human SF3B4, Q15427 (Q15427 whole entry): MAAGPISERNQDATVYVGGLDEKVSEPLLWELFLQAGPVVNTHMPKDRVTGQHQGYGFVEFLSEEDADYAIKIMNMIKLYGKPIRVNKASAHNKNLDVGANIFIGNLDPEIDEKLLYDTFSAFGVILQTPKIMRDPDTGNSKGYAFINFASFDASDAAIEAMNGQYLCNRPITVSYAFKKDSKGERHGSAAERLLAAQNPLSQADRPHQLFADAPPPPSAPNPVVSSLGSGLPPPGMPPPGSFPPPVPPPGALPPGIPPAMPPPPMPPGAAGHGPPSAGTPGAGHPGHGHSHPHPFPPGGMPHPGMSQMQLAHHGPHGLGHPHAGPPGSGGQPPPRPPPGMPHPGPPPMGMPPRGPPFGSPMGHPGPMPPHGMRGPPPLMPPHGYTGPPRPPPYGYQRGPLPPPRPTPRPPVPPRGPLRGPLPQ
On to P519S, for which the “effect of a mutation on the interaction” value was “with no effect”.

In a further assay the parent is B4. The following applies: with zn266_human ZNF266, Q14584.
Consider A89V, for which the “effect of a mutation on the interaction” value is “with no effect”.

In a further assay the parent is B5. The note with it: with cpsf7_human CPSF7, Q8N684.
For P393L, the “effect of a mutation on the interaction” value was “disrupting interaction strength”.

Variants of B6 are the subject of the next assay. The note with it: with tfp11_human TFIP11, Q9UBB9.
Chain of tfp11_human TFIP11, Q9UBB9 (Q9UBB9 whole entry): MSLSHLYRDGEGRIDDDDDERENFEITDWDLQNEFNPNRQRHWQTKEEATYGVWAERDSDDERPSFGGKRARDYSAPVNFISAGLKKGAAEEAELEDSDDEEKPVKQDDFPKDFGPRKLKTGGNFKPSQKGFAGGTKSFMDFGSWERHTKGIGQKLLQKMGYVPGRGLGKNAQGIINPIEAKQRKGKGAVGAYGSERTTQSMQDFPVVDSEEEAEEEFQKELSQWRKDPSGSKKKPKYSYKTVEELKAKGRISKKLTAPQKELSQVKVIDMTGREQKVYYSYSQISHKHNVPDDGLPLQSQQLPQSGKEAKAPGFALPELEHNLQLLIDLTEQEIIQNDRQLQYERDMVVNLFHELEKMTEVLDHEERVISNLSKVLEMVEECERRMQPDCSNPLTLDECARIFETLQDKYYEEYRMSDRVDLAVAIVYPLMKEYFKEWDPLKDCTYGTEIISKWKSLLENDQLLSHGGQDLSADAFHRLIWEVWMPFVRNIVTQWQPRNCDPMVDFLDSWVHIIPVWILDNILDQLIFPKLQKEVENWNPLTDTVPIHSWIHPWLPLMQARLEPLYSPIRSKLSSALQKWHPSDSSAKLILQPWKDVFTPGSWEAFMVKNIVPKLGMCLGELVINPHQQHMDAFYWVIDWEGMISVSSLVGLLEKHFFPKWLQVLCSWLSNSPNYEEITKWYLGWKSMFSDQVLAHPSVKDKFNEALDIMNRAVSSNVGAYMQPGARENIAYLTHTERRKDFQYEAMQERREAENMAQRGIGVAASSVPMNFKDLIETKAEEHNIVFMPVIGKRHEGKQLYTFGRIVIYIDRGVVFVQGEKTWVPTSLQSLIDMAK
On to V85I, for which the “effect of a mutation on the interaction” value is “with no effect”. Still for that read-out and setting: the same measure for L75M: “disrupting interaction strength”.

Variants of B7 are the subject of a further assay. The following applies: with cklf5_human CMTM5, Q96DZ9.
Turning to R68Q, the “effect of a mutation on the interaction” value was “with no effect”.

For the variant R116Q, the “effect of a mutation on the interaction” value is recorded as “with no effect”.
